Consider two substances from patent US20110275699A1, “Treatment For Obesity And Diabetes” (University of California, priority 2010, published 2011).

The target of the experiment is FLAG-tagged USF-1 (wild type, overexpressed in cells) (UniProt P22415). The experiment in a line: cell-based or functional assay.
Sequence of UniProt P22415 (P22415 whole entry): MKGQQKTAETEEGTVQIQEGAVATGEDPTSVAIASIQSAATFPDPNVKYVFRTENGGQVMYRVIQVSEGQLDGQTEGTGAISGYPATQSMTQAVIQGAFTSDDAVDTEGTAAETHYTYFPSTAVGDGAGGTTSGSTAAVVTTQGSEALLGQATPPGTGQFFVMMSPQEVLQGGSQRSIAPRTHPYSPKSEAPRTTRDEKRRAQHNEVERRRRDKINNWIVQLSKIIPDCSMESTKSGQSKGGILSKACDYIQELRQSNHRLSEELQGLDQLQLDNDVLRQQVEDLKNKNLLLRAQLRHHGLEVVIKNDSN

For “HDAC9, overexpressed in cells (from UniProt Q9UKV0 1-1011) (enzyme)”, the FAS promoter activity (-444 FAS-Luc reporter) was determined as 50 % decrease.
The same measure for “P/CAF, overexpressed in cells (from UniProt Q92831 1-832) (enzyme)”: 2 fold.
